Data as given in patent US20240368283A1.
Positions count from the first letter of the chain named.

B1: TA275 (antibody, V domains shown)
VH: QVTLKESGPGILQPSQTLSLTCSFSGFSLSTFGMGVGWIRQPSGKGLEWLAHIWWDDDKYYNPALKSRLTISKDTSKNQVFLKIANVDTADTATYYCARIPTRYWYFDVWGTGTTVTVSS
VL: QAVVTQESALTTSPGETVTLTCRSSTGAVTTSNYANWVQEKPDHLFTGLIGGTNNRAPGVPARFSGSLIGDKAALTITGAQTEDEAIYFCALWYSTHYVFGGGTKVTVL
modifications: Fc SEQ 587, CL SEQ 416
B2: TA289 (antibody, V domains shown)
VH: B1 VH with P101R, T102G, R103T, Y104W
VL: B1 VL with T96N, H97Q, Y98F, V99I, G102S
modifications: Fc SEQ 587, CL SEQ 416
B3: TA101 (antibody, V domains shown)
VH: DVQLVESGGGVARPGEFLRLSCAASGFTFRDYDMGWVRQAPGEGLEWVSSISVSGTTYYADSVKGRFTISRDNSENTLYLQMNSLTAEDTAVYYCGREDTLFHYWGLGTLVTVSS
VL: QSVLTQPPSASGTPGQRVTISCSGSTSNIGTRYVYWYQQLPGTAPKLLIYKNLQRPSGVPDRFSGSKSGTSASLAISGLQSEDEADYYCAAWDERLNGWVFGGGTKLTVL
modifications: Fc SEQ 587, CL SEQ 416
B4: TA102 (antibody, V domains shown)
VH: DVQLVESGGGVVRPGESLRLSCAASGFTFRNYDMTWVRQAPGEGLEWVATISGTDDTTYYADSVKGRATISRDNSNNTLYLRLFSLRAEDTAIYYCAREASNSFIDYWGLGTLVTVSS
VL: B3 VL with T26S, T31R, K51R, L53F, Q54E, A91S, R95S
modifications: Fc SEQ 587, CL SEQ 416
B5: TA104 (antibody, V domains shown)
VH: B3 VH with F17S
VL: B3 VL
modifications: Fc SEQ 587, CL SEQ 416
B6: TA132 (antibody, V domains shown)
VH: EVQLLESGGAFVQPGGSLRLSCAASGFTFSDYYMSWVRQAPGKGLEWVSVISNSGGSTYYTDSVKGRFTISRDNSKNTLYLQINSLRAEDTAVYYCTKDIGMTYFDYWGQGTLVTVSS
VL: QSVLTQPPSASGAPGQRVTISCSGSYSNIGNSYVSWYQQLPGTAPKLLIYLNSQRPSGVPDRFSGSKSGTSASLAISGLQSEDEADYYCAAWDDLNVWVFGGGTKLTVL
modifications: Fc SEQ 587, CL SEQ 416

molecular target: huPD1 (human) (UniProt Q15116); experiment: biosensor kinetics (BLI type); antibody captured on anti-human Fc biosensor, PD-1 in solution
Sequence (Q15116 25-170 limits assumed): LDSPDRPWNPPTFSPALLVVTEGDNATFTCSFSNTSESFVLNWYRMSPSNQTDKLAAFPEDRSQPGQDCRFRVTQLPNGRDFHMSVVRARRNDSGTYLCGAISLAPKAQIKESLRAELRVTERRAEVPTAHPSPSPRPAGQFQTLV

Row | Kd [nM] | koff [s⁻¹] | kon [M⁻¹ s⁻¹] | Binder
1 | 600 | 0.2 | 330000 | B1
2 | 484 | 1.6 | 3.4e+06 | B2
3 | 32.9 | 0.022 | 680000 | B3
4 | 24.8 | 0.014 | 540000 | B4
5 | 33.1 | 0.024 | – | B5
6 | 5.72 | 0.000647 | 113000 | B6

molecular target: cyPD1 (cynomolgus monkey); experiment: as above

Row | Kd [nM] | koff [s⁻¹] | kon [M⁻¹ s⁻¹] | Binder
7 | 987 | 0.2 | 200000 | B1
8 | 1390 | 2.1 | 1.6e+06 | B2
9 | 62.2 | 0.0076 | 120000 | B3
10 | 7.2 | 0.01 | 1.4e+06 | B4
11 | 56.8 | 0.009 | 160000 | B5
12 | 92 | 0.0137 | 149000 | B6
